Common to all, as to type: biochemical
Substrate in series [1]: NCCCCc1ccccc1
The series can be described thus: Kinetic parameters, mouse SSAO/VAP-1. As to conditions: other: Mouse SSAO/VAP-1. The protocol: (§1) The continuous spectrophotometric detection of SSAO-dependent H2O2 production based on a peroxidase-coupled reaction was performed as previously described by Abella et al. (2004, Diabetologia 47: 429-438) and following the procedure described by Holt et al., (1997, Anal. Biochem. 244: 384-392).
(§2) Compounds listed in Table 1 were prepared according to the methods described above, purity was determined by HPLC at 220 nm, molecular weight calculated by mass spectrometer. Human and mouse SSAO activity was determined by detecting the production of hydrogene peroxide in the presence of the different compounds present at 1 mM for human and 100 μM for mice activity measurements. Compounds in Table 2″ were similarly assayed. Values are means of percentages relative to benzylamine-related hydrogen production. Kinetic Parameters for select compounds are set forth in Table 3 (Mouse SSAO) and Table 4 (Human SSAO).

Substrate in series [2]: NCCCc1ccccc1
Briefly: Kinetic parameters, mouse SSAO/VAP-1. As to conditions: other: Mouse SSAO/VAP-1. As for the experimental part: as §1, §2

Substrate in series [3]: NCCc1ccc(F)cc1
Briefly: Kinetic parameters, mouse SSAO/VAP-1. As to conditions: other: Mouse SSAO/VAP-1. The protocol:
as §1, §2

Substrate in series [4]: NCCc1ccccc1
Briefly: Kinetic parameters, mouse SSAO/VAP-1. As to conditions: other: Mouse SSAO/VAP-1. As for the experimental part:
as §1, §2

Substrate in series [5]: NCc1ccc(F)cc1
The series can be described thus: Kinetic parameters, mouse SSAO/VAP-1. As to conditions: other: Mouse SSAO/VAP-1. As for the experimental part: as §1, §2

Substrate in series [6]: NCc1ccccc1
Briefly: Kinetic parameters, mouse SSAO/VAP-1. The conditions noted are these: other: Mouse SSAO/VAP-1. As for the experimental part: as §1, §2

Substrate in series [7]: NCCCCc1ccccc1
Briefly: Kinetic parameters, human SSAO/VAP-1. The conditions noted are these: other: Human SSAO/VAP-1. The protocol:
as §1, §2

Substrate in series [8]: NCCCc1ccccc1
The series can be described thus: Kinetic parameters, human SSAO/VAP-1. As to conditions: other: Human SSAO/VAP-1. As for the experimental part:
as §1, §2

Substrate in series [9]: NCCc1ccc(F)cc1
Briefly: Kinetic parameters, human SSAO/VAP-1. As to conditions: other: Human SSAO/VAP-1. The protocol:
as §1, §2

Substrate in series [10]: NCCc1ccccc1
The series can be described thus: Kinetic parameters, human SSAO/VAP-1. The conditions noted are these: other: Human SSAO/VAP-1. The protocol: as §1, §2

Substrate in series [11]: NCc1ccc(F)cc1
Briefly: Kinetic parameters, human SSAO/VAP-1. The conditions noted are these: other: Human SSAO/VAP-1. As for the experimental part:
as §1, §2

Substrate in series [12]: NCc1ccccc1
Briefly: Kinetic parameters, human SSAO/VAP-1. As to conditions: other: Human SSAO/VAP-1. The protocol:
as §1, §2

Data on two proteins can be found in patent publication US20070066682A1, “Arylalkylamine vanadium (V) salts for the treatment and/or prevention of Diabetes mellitus” (priority 2005, published 2007).

B1: Mouse SSAO/VAP-1 (Mus musculus) (protein)
chain: MTQKTTLVLLALAVITIFALVCVLLAGRSGDGGGLSQPLHCPSVLPSVQPRTHPSQSQPFADLSPEELTAVMSFLTKHLGPGLVDAAQARPSDNCVFSVELQLPAKAAALAHLDRGGPPPVREALAIIFFGGQPKPNVSELVVGPLPHPSYMRDVTVERHGGPLPYYRRPVLDREYQDIEEMIFHRELPQASGLLHHCCFYKHQGQNLLTMTTAPRGLQSGDRATWFGLYYNLSGAGFYPHPIGLELLIDHKALDPALWTIQKVFYQGRYYESLTQLEDQFEAGLVNVVLVPNNGTGGSWSLKSSVPPGPAPPLQFHPQGPRFSVQGSQVSSSLWAFSFGLGAFSGPRIFDIRFQGERVAYEISVQEAIALYGGNSPASMSTCYVDGSFGIGKYSTPLIRGVDCPYLATYVDWHFLLESQAPKTLRDAFCVFEQNQGLPLRRHHSDFYSHYFGGVVGTVLVVRSVSTLLNYDYIWDMVFHPNGAIEVKFHATGYISSAFFFGAGEKFGNRVGAHTLGTVHTHSAHFKVDLDVAGLKNWAWAEDMAFVPTIVPWQPEYQMQRLQVTRKLLETEEEAAFPLGGATPRYLYLASNHSNKWGHRRGYRIQILSFAGKPLPQESPIEKAFTWGRYHLAVTQRKEEEPSSSSIFNQNDPWTPTVNFTDFISNETIAGEDLVAWVTAGFLHIPHAEDIPNTVTAGNSVGFFLRPYNFFDEDPSFHSADSIYFREGQDATACEVNPLACLSQTATCAPEIPAFSHGGFAYRDN
B1: the Km in [1] was 8.8 ± 2.9 µM; in series [2] it was 10 ± 1.2 µM; in series [3] it was 31 ± 10 µM; in series [4], 4.8 ± 13 µM; in [5] it was 29.1 ± 4.8 µM; in series [6], 27.5 ± 9.9 µM. Besides, the kcat/Km in series [1] came out at 3910 M⁻¹ s⁻¹; in series [2], 1670 M⁻¹ s⁻¹; in [3], 488 M⁻¹ s⁻¹; in [4] it was 3040 M⁻¹ s⁻¹; in [5], 1490 M⁻¹ s⁻¹; in series [6], 3780 M⁻¹ s⁻¹.

B2: Human SSAO/VAP-1 (Homo sapiens) (protein)
chain: MNQKTILVLLILAVITIFALVCVLLVGRGGDGGEPSQLPHCPSVSPSAQPWTHPGQSQLFADLSREELTAVMRFLTQRLGPGLVDAAQARPSDNCVFSVELQLPPKAAALAHLDRGSPPPAREALAIVFFGRQPQPNVSELVVGPLPHPSYMRDVTVERHGGPLPYHRRPVLFQEYLDIDQMIFNRELPQASGLLHHCCFYKHRGRNLVTMTTAPRGLQSGDRATWFGLYYNISGAGFFLHHVGLELLVNHKALDPARWTIQKVFYQGRYYDSLAQLEAQFEAGLVNVVLIPDNGTGGSWSLKSPVPPGPAPPLQFYPQGPRFSVQGSRVASSLWTFSFGLGAFSGPRIFDVRFQGERLVYEISLQEALAIYGGNSPAAMTTRYVDGGFGMGKYTTPLTRGVDCPYLATYVDWHFLLESQAPKTIRDAFCVFEQNQGLPLRRHHSDLYSHYFGGLAETVLVVRSMSTLLNYDYVWDTVFHPSGAIEIRFYATGYISSAFLFGATGKYGNQVSEHTLGTVHTHSAHFKVDLDVAGLENWVWAEDMVFVPMAVPWSPEHQLQRLQVTRKLLEMEEQAAFLVGSATPRYLYLASNHSNKWGHPRGYRIQMLSFAGEPLPQNSSMARGFSWERYQLAVTQRKEEEPSSSSVFNQNDPWAPTVDFSDFINNETIAGKDLVAWVTAGFLHIPHAEDIPNTVTVGNGVGFFLRPYNFFDEDPSFYSADSIYFRGDQDAGACEVNPLACLPQAAACAPDLPAFSHGGFSHN
In the case of B2, the Km in series [7] came out at 430 ± 110 µM; in series [8] it was 1339 ± 140 µM; in series [9], 2805 ± 613 µM; in series [10], 2918 ± 1910 µM; in [11] it was 647 ± 32 µM; in series [12] it was 277 ± 33 µM. The maximum rate (Vmax) is 0.577 µmol/min/mg in series [7]; 0.156 µmol/min/mg in series [8]; 0.263 µmol/min/mg in series [9]; 0.05 µmol/min/mg in series [10]; 0.27 µmol/min/mg in series [11]; 0.294 µmol/min/mg in series [12]. Further, the kcat in [7] is 0.83 s⁻¹; in [8], 0.22 s⁻¹; in series [9] it was 0.38 s⁻¹; in series [10], 0.07 s⁻¹; in series [11], 0.39 s⁻¹; in [12], 0.42 s⁻¹. In addition, the kcat/Km worked out at 1930 M⁻¹ s⁻¹ in series [7]; 168 M⁻¹ s⁻¹ in [8]; 135 M⁻¹ s⁻¹ in series [9]; 25 M⁻¹ s⁻¹ in series [10]; 600 M⁻¹ s⁻¹ in [11]; 1530 M⁻¹ s⁻¹ in series [12].
